Consider 5 molecules from US5849493, “Screening assay for compounds stimulating somatostatin transcription factor -1 binding to an STF-1 binding site” (Research Development Foundation, dated 1997).

The target in experiment [1] is T1, Pbx1, in vitro translated protein (human, UniProt P40424). Nature of the experiment: gel mobility shift, TSEII probe, reticulocyte lysate programmed with PBX RNA. An excerpt:
Isl1 H.D., homeodomain of the lim domain factor Isl1. PBX interaction motif-Isl1 H.D., STF-1-Isl1 fusion protein containing STF-1 PBX interaction motif region (amino acid residues 110–138) fused to the Isl1 homeodomain. cdx3 H.D., homeodomain of the pancreatic homeobox protein cdx3 (amino acid residues 143–253). PBX interaction motif-cdx3, fusion protein containing STF-1 PBX interaction motif region (amino acid residues 110–138) fused to the cdx3 homeodomain (amino acid residues 176–253). PBX interaction motif-STF-1, STF-1 polypeptide containing the PBX interaction motif region (110–138) fused to the STF-1 homeodomain (amino acid residues 140–215). STF-1 H.D. STF-1 homeodomain alone without the PBX interaction motif region. […] Cooperativity with PBX tested with homeodomain fusion proteins shown over each lane. Monomeric and heterodimeric complexes as labeled.
(§1) Gel mobility shift assays were performed exactly as described previously (20) using 0.1 ng of end-labeled double stranded oligonucleotide whose sequences are presented in FIG. 2C. For off-rate analysis, the TSEII probe was first incubated with the proteins at room temperature for 30 minutes, then a 1000-fold excess of unlabeled TSEII oligonucleotide was added and aliquots were loaded at various time points on a running gel. In supershift assays, TU6 nuclear cell extract was preincubated with 1 µl of Pbx (11) or STF-antiserum (20) for 15 minutes at room temperature before adding the TSEII probe.

For experiment [2], the target named is T1, Pbx1, in vitro translated protein. Kind of experiment: gel mobility shift, TSEII probe. Here is the method:
Deletion endpoints in mutant STF-1 polypeptides are indicated over each lane. For example, Δ1-70 indicates STF-1 polypeptide lacking residues 1–70. Hox 140–215, STF-1 homeodomain polypeptide. […] H.D., STF-1 homeodomain (amino acid residues 140–215). Full length STF-1 protein extends from amino acid residues 1–284.
as §1

B1: GST-cdx3 H.D. fusion protein (other)
chain: PPGPAATGAAEQLSPSGQRRNLCEWMRKPAQPSLGSQVKTRTKDKYRVVYTDHQRLELEKEFHYSRYITIRRKAELAATLGLSERQVKIWFQNRRAKERKINKKKLQQQQQ
On to B1, for which the binding result in experiment [1] was “no binding”.

B2: GST-PBX interaction motif-Isl1 H.D. fusion protein (other)
chain: EEPSRVHLPFPWMKSTKAHAWKSQWAGGAKQPEKTTRVRTVLNEKQLHTLRTCYAANPRPDALMKEQLVEMTGLSPRVIRVWFQNKRCKDKKRSIMMKQLQQ
For B2, the binding result in experiment [1] is reported as “no binding”.

B3: STF-1 homeodomain polypeptide Hox 140-215 (other)
chain: not shown
Regarding B3, in experiment [2], the binding result is “no binding”.

B4: GST-PBX interaction motif-cdx3 fusion protein (other)
chain: EEPSRVHLPFPWMKSTKAHAWKSQWAGGALGSQVKTRTKDKYRVVYTDHQRLELEKEFHYSRYITIRRKAELAATLGLSERQVKIWFQNRRAKERKINKKKLQQQQQ
For B4, in experiment [1], the binding result is “no binding”.

B5: GST-Isl1 H.D. fusion protein (other)
chain: KQPEKTTRVRTVLNEKQLHTLRTCYAANPRPDALMKEQLVEMTGLSPRVIRVWFQNKRCKDKKRSIMMKQLQQ
As to B5, the binding result in experiment [1] is listed as “no binding”.
